The record followed here is the supplement of paper PMC5998384.

For data set [1], the system named is HeLa Kyoto. Description: melting temperature (median over replicates), in situ; higher = more thermally stable.
Data set [2] relates to HeLa Kyoto. Description: thermal stability score vs G1/S (z-score of summed log2 fold changes over temperatures); higher = more thermally stable than in G1/S.
In data set [3] the test system is HeLa Kyoto. Nature of the data set: solubility in G1/S (NP-40 vs SDS abundance) (log2 ratio); higher = more soluble. The following applies: cell cycle stage: G1/S.
Data set [4] has as its system HeLa Kyoto. Description: solubility change mitosis vs G1/S (difference of NP-40 vs SDS log2 ratios) (log2 ratio difference); higher = more soluble in mitosis.
[5] abbreviates: cell cycle stage: early G1 (4.5 h after nocodazole release).
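Throughout, for melting temperature (median over replicates), in situ: HeLa Kyoto cells synchronized by double thymidine or nocodazole block, proteins quantified by TMT10plex mass spectrometry, three independent biological replicates.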
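Throughout, for solubility change mitosis vs G1/S (difference of NP-40 vs SDS log2 ratios): synchronized HeLa Kyoto cells (double thymidine block for G1/S, nocodazole release for mitosis), protein amounts in NP-40 versus SDS lysates quantified by mass spectrometry, three biological replicates.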
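Throughout, for solubility in G1/S (NP-40 vs SDS abundance): HeLa Kyoto cells arrested at G1/S by double thymidine block, proteins quantified by TMT10plex mass spectrometry in mild NP-40 versus SDS extracts, three biological replicates.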
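Throughout, for thermal stability score vs G1/S (z-score of summed log2 fold changes over temperatures): synchronized HeLa Kyoto cells, proteins quantified by TMT10plex mass spectrometry, three biological replicates, mitosis taken 0.5 h after nocodazole release, G1/S directly after double thymidine block.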

As for “MPAERPAGSGGSEAPAMVEQLDTAVITPAMLEEEEQLEAAGLERERKMLEKARMSWDRESTEIRYRRLQHLLEKSNIYSKFLLTKMEQQQLEEQKKKEKLERKKESLKVKKGKNSIDASEEKPVMRKKRGREDESYNISEVMSKEEILSVAKKNKKENEDENSSSTNLCVEDLQKNKDSNSIIKDRLSETVRQNTKFFFDPVRKCNGQPVPFQQPKHFTGGVMRWYQVEGMEWLRMLWENGINGILADEMGLGKTVQCIATIALMIQRGVPGPFLVCGPLSTLPNWMAEFKRFTPDIPTMLYHGTQEERQKLVRNIYKRKGTLQIHPVVITSFEIAMRDRNALQHCYWKYLIVDEGHRIKNMKCRLIRELKRFNADNKLLLTGTPLQNNLSELWSLLNFLLPDVFDDLKSFESWFDITSLSETAEDIIAKEREQNVLHMLHQILTPFLLRRLKSDVALEVPPKREVVVYAPLSKKQEIFYTAIVNRTIANMFGSSEKETIELSPTGRPKRRTRKSINYSKIDDFPNELEKLISQIQPEVDRERAVVEVNIPVESEVNLKLQNIMMLLRKCCNHPYLIEYPIDPVTQEFKIDEELVTNSGKFLILDRMLPELKKRGHKVLLFSQMTSMLDILMDYCHLRDFNFSRLDGSMSYSEREKNMHSFNTDPEVFIFLVSTRAGGLGINLTAADTVIIYDSDWNPQSDLQAQDRCHRIGQTKPVVVYRLVTANTIDQKIVERAAAKRKLEKLIIHKNHFKGGQSGLNLSKNFLDPKELMELLKSRDYEREIKGSREKVISDKDLELLLDRSDLIDQMNASGPIKEKMGIFKILENSEDSSPECLF [HELLS]”, the melting temperature with HeLa Kyoto [1] (cell cycle stage: G1/S) was 46.2 °C; with HeLa Kyoto [1] (cell cycle stage: mitosis) it was 48.2 °C. The thermal stability score was 1.77 in the data set with HeLa Kyoto [2] (setting [5]) and 3.02 in the data set on HeLa Kyoto [2] (cell cycle stage: mitosis). In addition, the “solubility in G1/S (log2)” value with HeLa Kyoto [3] is -0.204. Moreover, the “solubility change mitosis (log2)” value with HeLa Kyoto [4] came out at 0.252.

As for “MPAHLLQDDISSSYTTTTTITAPPSRVLQNGGDKLETMPLYLEDDIRPDIKDDIYDPTYKDKEGPSPKVEYVWRNIILMSLLHLGALYGITLIPTCKFYTWLWGVFYYFVSALGITAGAHRLWSHRSYKARLPLRLFLIIANTMAFQNDVYEWARDHRAHHKFSETHADPHNSRRGFFFSHVGWLLVRKHPAVKEKGSTLDLSDLEAEKLVMFQRRYYKPGLLMMCFILPTLVPWYFWGETFQNSVFVATFLRYAVVLNATWLVNSAAHLFGYRPYDKNISPRENILVSLGAVGEGFHNYHHSFPYDYSASEYRWHINFTTFFIDCMAALGLAYDRKKVSKAAILARIKRTGDGNYKSG [SCD]”, the melting temperature in the data set on HeLa Kyoto [1] (cell cycle stage: G1/S) stood at 50.5 °C; with HeLa Kyoto [1] (cell cycle stage: mitosis), 51.2 °C. Also, the thermal stability score is 1.76 with HeLa Kyoto [2] (setting [5]) and -0.899 in the data set with HeLa Kyoto [2] (cell cycle stage: mitosis). Also, the “solubility in G1/S (log2)” value in the data set on HeLa Kyoto [3] was -0.126. Also, the “solubility change mitosis (log2)” value in the data set on HeLa Kyoto [4] is -0.151.

The sequence “MPAPEQASLVEEGQPQTRQEAASTGPGMEPETTATTILASVKEQELQFQRLTRELEVERQIVASQLERCRLGAESPSIASTSSTEKSFPWRSTDVPNTGVSKPRVSDAVQPNNYLIRTEPEQGTLYSPEQTSLHESEGSLGNSRSSTQMNSYSDSGYQEAGSFHNSQNVSKADNRQQHSFIGSTNNHVVRNSRAEGQTLVQPSVANRAMRRVSSVPSRAQSPSYVISTGVSPSRGSLRTSLGSGFGSPSVTDPRPLNPSAYSSTTLPAARAASPYSQRPASPTAIRRIGSVTSRQTSNPNGPTPQYQTTARVGSPLTLTDAQTRVASPSQGQVGSSSPKRSGMTAVPQHLGPSLQRTVHDMEQFGQQQYDIYERMVPPRPDSLTGLRSSYASQHSQLGQDLRSAVSPDLHITPIYEGRTYYSPVYRSPNHGTVELQGSQTALYRTGSVGIGNLQRTSSQRSTLTYQRNNYALNTTATYAEPYRPIQYRVQECNYNRLQHAVPADDGTTRSPSIDSIQKDPREFAWRDPELPEVIHMLQHQFPSVQANAAAYLQHLCFGDNKVKMEVCRLGGIKHLVDLLDHRVLEVQKNACGALRNLVFGKSTDENKIAMKNVGGIPALLRLLRKSIDAEVRELVTGVLWNLSSCDAVKMTIIRDALSTLTNTVIVPHSGWNNSSFDDDHKIKFQTSLVLRNTTGCLRNLSSAGEEARKQMRSCEGLVDSLLYVIHTCVNTSDYDSKTVENCVCTLRNLSYRLELEVPQARLLGLNELDDLLGKESPSKDSEPSCWGKKKKKKKRTPQEDQWDGVGPIPGLSKSPKGVEMLWHPSVVKPYLTLLAESSNPATLEGSAGSLQNLSAGNWKFAAYIRAAVRKEKGLPILVELLRMDNDRVVSSVATALRNMALDVRNKELIGKYAMRDLVNRLPGGNGPSVLSDETMAAICCALHEVTSKNMENAKALADSGGIEKLVNITKGRGDRSSLKVVKAAAQVLNTLWQYRDLRSIYKKDGWNQNHFITPVSTLERDRFKSHPSLSTTNQQMSPIIQSVGSTSSSPALLGIRDPRSEYDRTQPPMQYYNSQGDATHKGLYPGSSKPSPIYISSYSSPAREQNRRLQHQQLYYSQDDSNRKNFDAYRLYLQSPHSYEDPYFDDRVHFPASTDYSTQYGLKSTTNYVDFYSTKRPSYRAEQYPGSPDSWV [PKP4]” displayed a melting temperature with HeLa Kyoto [1] (cell cycle stage: G1/S) of 50.6 °C. The thermal stability score was -0.193 in the data set with HeLa Kyoto [2] (setting [5]) and -0.925 with HeLa Kyoto [2] (cell cycle stage: mitosis). In the data set on HeLa Kyoto [3], the “solubility in G1/S (log2)” value was -0.319. Besides, the “solubility change mitosis (log2)” value in the data set on HeLa Kyoto [4] is 0.0763.

On to “MPATRKPMRYGHTEGHTEVCFDDSGSFIVTCGSDGDVRIWEDLDDDDPKFINVGEKAYSCALKSGKLVTAVSNNTIQVHTFPEGVPDGILTRFTTNANHVVFNGDGTKIAAGSSDFLVKIVDVMDSSQQKTFRGHDAPVLSLSFDPKDIFLASASCDGSVRVWQISDQTCAISWPLLQKCNDVINAKSICRLAWQPKSGKLLAIPVEKSVKLYRRESWSHQFDLSDNFISQTLNIVTWSPCGQYLAAGSINGLIIVWNVETKDCMERVKHEKGYAICGLAWHPTCGRISYTDAEGNLGLLENVCDPSGKTSSSKVSSRVEKDYNDLFDGDDMSNAGDFLNDNAVEIPSFSKGIINDDEDDEDLMMASGRPRQRSHILEDDENSVDISMLKTGSSLLKEEEEDGQEGSIHNLPLVTSQRPFYDGPMPTPRQKPFQSGSTPLHLTHRFMVWNSIGIIRCYNDEQDNAIDVEFHDTSIHHATHLSNTLNYTIADLSHEAILLACESTDELASKLHCLHFSSWDSSKEWIIDLPQNEDIEAICLGQGWAAAATSALLLRLFTIGGVQKEVFSLAGPVVSMAGHGEQLFIVYHRGTGFDGDQCLGVQLLELGKKKKQILHGDPLPLTRKSYLAWIGFSAEGTPCYVDSEGIVRMLNRGLGNTWTPICNTREHCKGKSDHYWVVGIHENPQQLRCIPCKGSRFPPTLPRPAVAILSFKLPYCQIATEKGQMEEQFWRSVIFHNHLDYLAKNGYEYEESTKNQATKEQQELLMKMLALSCKLEREFRCVELADLMTQNAVNLAIKYASRSRKLILAQKLSELAVEKAAELTATQVEEEEEEEDFRKKLNAGYSNTATEWSQPRFRNQVEEDAEDSGEADDEEKPEIHKPGQNSFSKSTNSSDVSAKSGAVTFSSQGRVNPFKVSASSKEPAMSMNSARSTNILDNMGKSSKKSTALSRTTNNEKSPIIKPLIPKPKPKQASAASYFQKRNSQTNKTEEVKEENLKNVLSETPAICPPQNTENQRPKTGFQMWLEENRSNILSDNPDFSDEADIIKEGMIRFRVLSTEERKVWANKAKGETASEGTEAKKRKRVVDESDETENQEEKAKENLNLSKKQKPLDFSTNQKLSAFAFKQE [WDHD1]”, for which the melting temperature worked out at 47.9 °C with HeLa Kyoto [1] (cell cycle stage: G1/S) and 49.6 °C in the data set on HeLa Kyoto [1] (cell cycle stage: mitosis). For the same sequence, the thermal stability score with HeLa Kyoto [2] (setting [5]) is 2.58; in the data set on HeLa Kyoto [2] (cell cycle stage: mitosis), 6.16. Moreover, the “solubility in G1/S (log2)” value in the data set on HeLa Kyoto [3] is -0.1. In addition, the “solubility change mitosis (log2)” value in the data set with HeLa Kyoto [4] is -0.0991.
